Results as given in publication PMC7674511, “The Chaperone BAG6 Regulates Cellular Homeostasis between Autophagy and Apoptosis by Holding LC3B” (iScience, 2020).
No end group written: not given here.

Molecular target: LC3B-I (UniProt Q9GZQ8 1-120)
Experiment: fluorescence polarisation; fluorescence anisotropy; peptide at 1 μM, LC3B-I or Pro-LC3B added from 0 to 50 μM; Kd by nonlinear curve fitting; three independent experiments
Conditions: both partners purified

B1: BAG6 LIR1 peptide (residues 124-143) (peptide)
peptide: VHDRNANSYVMVGTFNLPSD
modifications: also: FITC label, position not given here
notes: BAG6, 20-aa peptide encompassing the LIR1 motif (132-135 YVMV), residues 124-143; it has the same name there; also called wild-type BAG6 LIR-1 peptide; source: synthetic peptide
Kd: 22.2 µM
